Assay results reported in patent publication US20180044393A1 (INSERM INSTITUT NATIONAL DE LA SANT ET DE LA RECHERCHE M …, published 2018).
Residue numbers refer to the chain shown, from its start. Positions of bridges follow the written chain, without caps; N, C: chain ends. No end group written: not given here. *: point of attachment. 125I = [125I]*

Experiments:
Test in all cases: 125I-OxA binding on CHO-S cells expressing the OX1R mutant
[1] = target: T1, OX1R Y348A (human, UniProt O43613 1-425)
T1 construct: site-directed mutant (TM7) stably expressed in CHO-S cells; not shown: YFP from vector pEYFP-N2 fused at the C-terminus
T1 chain: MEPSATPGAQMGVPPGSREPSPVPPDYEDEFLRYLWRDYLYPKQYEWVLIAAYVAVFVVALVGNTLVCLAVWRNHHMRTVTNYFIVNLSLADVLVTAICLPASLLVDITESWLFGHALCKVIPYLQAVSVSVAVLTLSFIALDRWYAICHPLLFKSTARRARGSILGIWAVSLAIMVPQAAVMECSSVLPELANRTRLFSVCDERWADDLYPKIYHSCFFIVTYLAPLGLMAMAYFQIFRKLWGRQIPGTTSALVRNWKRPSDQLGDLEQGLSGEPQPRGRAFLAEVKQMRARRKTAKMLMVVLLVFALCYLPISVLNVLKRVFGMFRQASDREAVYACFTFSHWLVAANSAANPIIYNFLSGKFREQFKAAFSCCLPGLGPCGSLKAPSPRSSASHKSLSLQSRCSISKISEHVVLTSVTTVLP
Procedure: (§1) CHO—S cells expressing recombinant native or mutated OX1R were grown as previously described (El Firar et al., 2009) and maintained at 37° C. in a humidified 5% CO₂/air incubator. ¹²⁵I-orexia-A (74 TBq/mmol) was prepared as previously described (El Firar et al., 2009). […] Free peptides were removed by 2 cell washing cycles with PBS. […] Data were analyzed using the GraphPad software (http://www.graphpad.com).
(§2) All residues of OX1R fulfilling this condition were mutated to alanine by site-directed mutagenesis (Table II).

[2] = target: T2, OX1R I98A (human, UniProt O43613 1-425)
T2 construct: site-directed mutant (TM2) stably expressed in CHO-S cells; not shown: YFP from vector pEYFP-N2 fused at the C-terminus
T2 chain: T1 chain with I98A, A348Y
Procedure: as §1, §2

[3] = target: T3, OX1R V319A (human, UniProt O43613 1-425)
T3 construct: site-directed mutant (TM6) stably expressed in CHO-S cells; not shown: YFP from vector pEYFP-N2 fused at the C-terminus
T3 chain: T1 chain with V319A, A348Y
Procedure: as §1, §2

[4] = target: T4, OX1R K321A (human, UniProt O43613 1-425)
T4 construct: site-directed mutant (TM6) stably expressed in CHO-S cells; not shown: YFP from vector pEYFP-N2 fused at the C-terminus
T4 chain: T1 chain with K321A, A348Y
Procedure: as §1, §2

[5] = target: T5, OX1R Y124A (human, UniProt O43613 1-425)
T5 construct: site-directed mutant (TM3) stably expressed in CHO-S cells; not shown: YFP from vector pEYFP-N2 fused at the C-terminus
T5 chain: T1 chain with Y124A, A348Y
Procedure: as §1, §2

- binding result [1]: binds
- binding result [2]: binds
- binding result [3]: binds
- binding result [4]: binds
- binding result [5]: binds
B1: 125I-orexin-A (peptide, UniProt O43612 34-66, looked up)
peptide: QPLPDCCRQKTCSCRLY(125I)ELLHGAGNHAAGILTL
modifications: disulfide 6-12, 7-14; not fully specified (residue 1, C-terminus)
notes: mature; also called OxA
